Laboratory results as given in the Immune Epitope Database (IEDB).

Legend:
Experiment in all cases: IEDB peptide-MHC binding, purified MHC/competitive/radioactivity; ≥ and ≤ were set here for values at or beyond the usual limits of such assays
Conditions in all cases: source organism: Homo sapiens
[1] = target: HLA-A*03:01
[2] = target: HLA-A*11:01
[3] = target: HLA-A*68:01
[4] = target: HLA-A*30:01
[5] = target: HLA-A*33:01
[6] = target: HLA-A*31:01

IC50 [1] | IC50 [2] | IC50 [3] | IC50 [4] | IC50 [5] | IC50 [6] | Sequence
1.07 µM | 0.063 µM | 0.01 µM | ≥ 70 µM | 0.06 µM | ≥ 70 µM | EVYEGVWKK
2.28 µM | 2.28 µM | 4.21 µM | 10.1 µM | 63.6 µM | 9.87 µM | KLGGGQYGE
